Source: IntAct's records for PubMed 30530185

B1: Coiled-coil-helix-coiled-coil-helix domain-containing protein 2 (Homo sapiens), Q9Y6H1 (parent)
chain: MPRGSRSRTSRMAPPASRAPQMRAAPRPAPVAQPPAAAPPSAVGSSAAAPRQPGLMAQMATTAAGVAVGSAVGHTLGHAITGGFSGGSNAEPARPDITYQEPQGTQPAQQQQPCLYEIKQFLECAQNQGDIKLCEGFNEVLKQCRLANGLA
partner: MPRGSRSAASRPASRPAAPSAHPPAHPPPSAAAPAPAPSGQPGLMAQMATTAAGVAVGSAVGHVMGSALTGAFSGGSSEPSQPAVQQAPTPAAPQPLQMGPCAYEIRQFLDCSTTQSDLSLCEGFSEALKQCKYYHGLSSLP

Variants of: B1
Conditions: with chc10_human CHCHD10, Q8WYQ3

Row | effect of a mutation on the interaction | Variant
1 | increasing interaction strength | MPRGSRSRTSRMAPPASRAPQMRAAPRPAPVAQPPAAAPPSAVGSSAAAPRQPGLMAQMAITAAGVAVGSAVGHTLGHAITGGFSGGSNAEPARPDITYQEPQGTQPAQQQQPCLYEIKQFLECAQNQGDIKLCEGFNEVLKQCRLANGLA
